Measured values published in US20250346685A1.

What was measured:
FcgRI = FcgRI (UniProt P12314); assay: SPR
[1] = biological target: human CD3 on T cells (Jurkat cells; human peripheral blood CD4+ and CD8+ T-cells) (human) (UniProt P07766); assay: flow cytometry on Jurkat cells

Chain of FcgRI (P12314 16-288): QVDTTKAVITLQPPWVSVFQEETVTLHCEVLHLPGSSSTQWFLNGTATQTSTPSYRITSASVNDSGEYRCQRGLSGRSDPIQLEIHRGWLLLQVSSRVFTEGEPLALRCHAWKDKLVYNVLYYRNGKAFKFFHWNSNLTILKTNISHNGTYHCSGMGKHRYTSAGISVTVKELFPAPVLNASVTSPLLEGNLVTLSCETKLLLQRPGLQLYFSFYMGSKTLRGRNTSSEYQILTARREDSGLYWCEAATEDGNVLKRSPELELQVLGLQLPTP

| Substance | Kd (FcgRI) | affinity (FACS) [1] |
| --- | --- | --- |
| KLH-hIgG4 | 8.78 nM | – |
| OKT3-hIgG1 (antibody) | – | 0.27 nM |
